Results published in patent publication US20250282885A1 (VST BIO, published 2025).

B1: R4M-P3-E06 (antibody, human IgG1, kappa, V domains shown)
VH: EVQLVESGGGVVQPGGSLRLSCAASGFTFSNYGMHWVRQAPGKGLEWVATISYDGTKKYYPDSVRGRFTISRDNSENMLYLQMDSLRLEDTAVIYCAKDLVSGSRYGFAFDSWGPGTLVTVSS
VL: DIVMTQSPLSLPVTLGQPASISCRSSQSLVHSDGNTYLNWFQQRPGQSPRRLIYKVSNRDSGVPDRFSGTGSGTDFTLKISRVEADDVGVYYCMQGTHWPPIFGQGTRLEIKR
notes: human IgG1 kappa from the phage campaign
B2: R3-P1-C02 (antibody, human IgG1, kappa, V domains shown)
VH: EVQLVESGGGVVQPGGSLRISCVASEFPFSDFGMHWVRQAPGKGLEWVAFVRSHGSGKYYADSVKGRFTISGDKSKSTLYLQMESLRPDDAAVYYCTTLADVWGQGTTVTVSS
VL: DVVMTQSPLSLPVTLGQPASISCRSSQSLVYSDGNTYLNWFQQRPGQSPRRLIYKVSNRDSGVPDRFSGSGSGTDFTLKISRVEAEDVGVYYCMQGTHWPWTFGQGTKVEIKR

What was measured:
[1] = target: human Sdc2 on Human Umbilical Vein Endothelial Cells (HUVEC) (human, UniProt P34741 19-201); experiment: cell-based or functional assay
Sequence of human Sdc2 on Human Umbilical Vein Endothelial Cells (HUVEC) (P34741 19-201 limits assumed): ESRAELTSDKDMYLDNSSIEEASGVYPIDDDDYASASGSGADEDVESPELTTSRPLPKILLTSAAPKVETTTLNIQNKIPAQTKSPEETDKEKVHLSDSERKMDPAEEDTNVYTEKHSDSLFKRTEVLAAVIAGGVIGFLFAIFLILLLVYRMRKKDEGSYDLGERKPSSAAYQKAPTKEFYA

[2] = target: T1, human Sdc2 (human, UniProt P34741 19-144, limits assumed); experiment: Kd (human Sdc2), summary table of the mAbs
T1 construct: Antigen of the Octet tandem binning, loaded on biosensors at 100 nM; also called huSdc2; hSdc2
T1 sequence (P34741 19-144 limits assumed): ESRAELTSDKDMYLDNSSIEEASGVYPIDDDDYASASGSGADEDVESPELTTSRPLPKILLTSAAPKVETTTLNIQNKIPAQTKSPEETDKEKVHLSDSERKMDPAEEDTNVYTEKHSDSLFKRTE

[3] = target: T1, human Sdc2; experiment: Octet BLI, heading box over the sensorgram
[4] = target: T1, human Sdc2; experiment: Octet tandem binning; saturating Ab f3 19838-6N03-A
[5] = target: T1, human Sdc2; experiment: Octet tandem binning; saturating Ab m2 19838-8G17-A
[6] = target: T1, human Sdc2; experiment: Octet tandem binning; saturating Ab f9 19838-6-E17-A
[7] = target: T1, human Sdc2; experiment: Octet tandem binning; saturating Ab f12 19838-6-N03-A
[8] = target: T1, human Sdc2; experiment: Octet tandem binning; saturating Ab m1 19838-20H19-AB
[9] = target: T1, human Sdc2; experiment: Octet tandem binning; saturating Ab f10 19838-10-I12-A
[10] = target: T1, human Sdc2; experiment: Octet tandem binning; saturating Ab f11 19838-20-H19-A
[11] = target: T1, human Sdc2; experiment: Octet tandem binning; saturating Ab f4 19844-R3-P3-C11
Summary of the method: (§1)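 Human Sdc2 (100 nM) served as antigen on Octet biosensors, which were dipped in saturating antibody at 25 μg/ml for 240 s, then competing antibody at 5 μg/ml for 180 s. Competing-antibody signal was divided by its binding after a buffer-only saturation step.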

[12] = target: T1, human Sdc2; experiment: Octet tandem binning; saturating Ab f6 19844-R3-P3-E09
Summary of the method: as §1

[13] = target: T1, human Sdc2; experiment: Octet tandem binning; saturating Ab f7 19844-R3-P3-A12
[14] = target: T1, human Sdc2; experiment: Octet tandem binning; saturating Ab m7 19844-R3-P1-E07
[15] = target: T1, human Sdc2; experiment: Octet tandem binning; saturating Ab f8 19844-R4M-P2-C02
[16] = target: T1, human Sdc2; experiment: Octet tandem binning; saturating Ab m4 19844-R4M-P1-A10
Summary of the method: as §1

[17] = target: T1, human Sdc2; experiment: Octet tandem binning; Buffer in place of a saturating Ab
[18] = target: T1, human Sdc2; experiment: Octet BLI, AHC sensor loaded with the antibody, huSdc2 as sample; Full R2 0.9525
Method: In order to characterize the binding affinity and in vivo/in vitro functional ability of the twelve clones generated by the previous studies and disclosed in Table 1, a series of assays were performed on each clone. These assays measured the affinity of each antibody clone for human, pig, and mouse Sdc2 using an Octet® binding assay system. Additionally, the functional ability of each clone to inhibit VEGFA-driven permeability (see Santiago, et al. (2021) J Am Heart Assoc. 10(18):e020521) was assessed in two therapeutic settings: a “prevention” study in which three concentrations of antibody (5 μg/ml, 10 μg/ml, 15 μg/ml, 20 μg/ml, and/or 40 μg/ml depending on the study) were pre-incubated for an hour before administration of 100 ng/ml of VEGFA, and a “treatment” study in which 3 hours of pre-treatment with 100 ng/ml VEGFA were followed by treatment with antibody at 20 μg/ml or 40 μg/ml. Results are shown for 8-G17 in FIG. 8 and FIG. 9, 20-H19-AB in FIG. 10 and FIG. 11 (FIG. 12 for monkey ECs), R3-P3-C11 in FIG. 13 and FIG. 14, R4M-P3-E06 in FIG. 15 and FIG. 16, R3-P3-E09 in FIG. 17 and FIG. 18, R3-P1-C02 in FIG. 19 and FIG. 20, R3-P3-A12 in FIG. 21 and FIG. 22, R4M-P3-A12 in FIG. 23 and FIG. 24, and R4M-P1-A10 in FIG. 25 and FIG. 26.

[19] = target: T1, human Sdc2; experiment: Octet tandem binning; saturating Ab m6 19838-20H19-AA (marked non-binding ligand)
[20] = target: T1, human Sdc2; experiment: Octet tandem binning; saturating Ab m3 19844-R3-P1-C02 (row boxed, self-self >0.09)
[21] = target: T1, human Sdc2; experiment: Octet tandem binning; saturating Ab m8 19844-R4M-P1-B01 (marked non-binding ligand)
[22] = target: T1, human Sdc2; experiment: Octet tandem binning; saturating Ab m5 19844-R4M-P3-A12 (row boxed, self-self >0.09)
Summary of the method: as §1

[23] = target: T1, human Sdc2; experiment: Octet BLI, AHC sensor loaded with the antibody, huSdc2 as sample (curves huSdc2, 2000 and 1000, unit inferred); Full R2 0.9525
[24] = target: T1, human Sdc2; experiment: Octet BLI, heading box over the sensorgram; remark: listed apart in the source
[25] = target: T2, mouse Sdc2 (mouse, UniProt P43407 19-145, limits assumed); experiment: Octet BLI, heading box over the sensorgram
T2 construct: Immobilised on Maxisorp plates for panning and ELISA; also called mSdc2; moSdc2
T2 sequence (P43407 19-145 limits assumed): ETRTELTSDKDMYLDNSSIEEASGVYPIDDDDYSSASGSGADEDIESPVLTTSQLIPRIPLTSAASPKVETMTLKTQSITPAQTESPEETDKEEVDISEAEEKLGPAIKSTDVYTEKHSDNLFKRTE

[26] = target: T1, human Sdc2; experiment: Octet tandem binning; saturating Ab f5 19844-R4M-P3-E06
[27] = target: T1, human Sdc2; experiment: Octet BLI, HIS1K sensor loaded with huSdc2, antibody as sample; Full R2 0.9663
[28] = target: T2, mouse Sdc2; experiment: Octet BLI, HIS1K sensor loaded with moSdc2, antibody as sample; Full R2 0.8674
[29] = target: T3, pig Sdc2 (pig, UniProt F1S0L5 19-145); experiment: Octet BLI, HIS1K sensor loaded with pigSdc2, antibody as sample; Full R2 0.9708
T3 construct: also called pSdc2

[30] = target: T3, pig Sdc2; experiment: Octet BLI, heading box over the sensorgram; the box prints nm, the table gives 4.74E-09 M
[31] = target: T2, mouse Sdc2; experiment: Octet BLI, HIS1K sensor loaded with moSdc2, antibody as sample (curves 111.1, 37, 12.3, 4.1, 1.4, unit inferred); Full R2 0.8674

Binder | % Inhibition of VEGFA-induced permeability at 24hrs (20ug/ml) [1] [%] | Kd [2] [nM] | raw competing-Ab binding signal [4] | raw competing-Ab binding signal [5] | raw competing-Ab binding signal [6] | raw competing-Ab binding signal [7] | raw competing-Ab binding signal [8] | raw competing-Ab binding signal [9] | raw competing-Ab binding signal [10] | raw competing-Ab binding signal [11] | raw competing-Ab binding signal [12] | raw competing-Ab binding signal [13] | raw competing-Ab binding signal [14] | raw competing-Ab binding signal [15] | raw competing-Ab binding signal [16] | raw competing-Ab binding signal [17] | raw competing-Ab binding signal [19] | raw competing-Ab binding signal [21] | raw competing-Ab binding signal [22] | also measured
B1 | 95 | 448 | 0.209 | 0.183 | 0.231 | 0.252 | 0.284 | 0.241 | 0.311 | 0.0598 | 0.025 | 0.0799 | 0.247 | 0.0709 | 0.116 | 0.256 | 0.251 | 0.25 | 0.223 | Kd [3]: ~480 nM; koff [18]: 0.041 s⁻¹; kon [18]: 84000 M⁻¹ s⁻¹; raw competing-Ab binding signal [20]: 0.0913; Kd [23]: 488 nM
B2 | 100 | 2.81 | 0.221 | 0.207 | 0.227 | 0.233 | 0.27 | 0.235 | 0.286 | 0.0466 | 0.0516 | 0.103 | 0.24 | 0.0877 | 0.126 | 0.223 | 0.254 | 0.204 | 0.231 | Kd [24]: ~2.81 nM; Kd [25]: ~2.44 nM; raw competing-Ab binding signal [26]: -0.0088; Kd [27]: 2.81 nM; koff [27]: 0.00946 s⁻¹; kon [27]: 3.36e+06 M⁻¹ s⁻¹; koff [28]: 0.114 s⁻¹; Kd [29]: 4.74 nM; koff [29]: 0.0103 s⁻¹; kon [29]: 2.16e+06 M⁻¹ s⁻¹; Kd [30]: ~4.74 nM; Kd [31]: 2.44 nM
